Target: 1G4 TCRαβ with TCRβ T130C/H172C, on J8Zb2m-α-β- reporter T cells (human)

Q: Which peak NFAT reporter response to HLA–antigen tetramers relative to wild type does the source give for “iTAg tetramer/APC – HLA-A*02:01 NY-ESO-1 (…) (from UniProt P61769 21-119) (peptide-MHC)” here?
A: Its peak NFAT reporter response to HLA–antigen tetramers relative to wild type is 50 % reduction.

Source: paper PMC12708868
